Assay results taken from patent publication US20220332804A1 (CSL INNOVATION, published 2022).
Substitutions are numbered along the chain they refer to.

Columns and labels:
Experiment in all cases: SPR, KD relative to WT C2;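 further: biacore SPR at 37 °C, anti-C2 mAbs captured on anti-human IgG chips with alanine or serine point mutants of C2 as analyte, KD from 1:1 fit compared with wild-type C2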
human C2 N380A = target: T1, human C2 N380A (human, UniProt P06681 21-752)
T1 sequence: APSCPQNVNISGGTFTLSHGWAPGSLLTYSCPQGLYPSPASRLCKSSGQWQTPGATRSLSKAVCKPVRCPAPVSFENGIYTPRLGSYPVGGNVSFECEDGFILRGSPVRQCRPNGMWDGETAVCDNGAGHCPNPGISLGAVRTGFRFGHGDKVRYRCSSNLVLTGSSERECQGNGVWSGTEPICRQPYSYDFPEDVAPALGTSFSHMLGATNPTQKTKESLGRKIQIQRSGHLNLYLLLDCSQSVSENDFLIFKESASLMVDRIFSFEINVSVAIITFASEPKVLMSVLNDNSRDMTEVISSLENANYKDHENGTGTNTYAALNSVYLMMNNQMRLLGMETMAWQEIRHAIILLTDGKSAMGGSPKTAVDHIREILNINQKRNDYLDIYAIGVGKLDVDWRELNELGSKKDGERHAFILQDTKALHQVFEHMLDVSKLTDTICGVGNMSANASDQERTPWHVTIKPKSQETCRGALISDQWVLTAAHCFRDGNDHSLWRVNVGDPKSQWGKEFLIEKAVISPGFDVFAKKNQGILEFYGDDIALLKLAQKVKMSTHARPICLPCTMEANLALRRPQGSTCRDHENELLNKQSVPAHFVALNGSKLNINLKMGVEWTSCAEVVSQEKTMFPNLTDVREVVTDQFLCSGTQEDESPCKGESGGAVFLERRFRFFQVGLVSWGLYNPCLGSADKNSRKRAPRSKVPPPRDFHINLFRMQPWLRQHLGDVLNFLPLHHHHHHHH

human C2 L620A = target: T2, human C2 L620A (human, UniProt P06681 21-752)
T2 sequence: T1 sequence with A360N, L600A

human C2 N471A = target: T3, human C2 N471A (human, UniProt P06681 21-752)
T3 sequence: T1 sequence with A360N, N451A

human C2 V448A = target: T4, human C2 V448A (human, UniProt P06681 21-752)
T4 sequence: T1 sequence with A360N, V428A

Measured: Fold diff

B1: RF16-242 (antibody, human IgG4 S228P, lambda, V domains shown)
VH: EVQLLQSGAEVKKPGESLKISCKGSGYSFTSYWIGWVRQMPGKGLEWMGIIYPGDSDTRYSPSFQGQVTISADKSISTAYLQWSSLKASDTAMYYCARRGHYGDYFDYWGQGTLVTVSS
VL: SYELTQPPSVSVSPGQTARITCSGDALPKKYAYWYHQKSGQAPVLVIYEDRRRPSEIPERFSGSSSGTMATLTITGAQVEDEGVYFCYSRDRAGNQRVFGGGTQLTVLG
notes: pH-dependent anti-C2 antibody from a phage display library
1 fold: human C2 N380A | human C2 L620A | human C2 N471A | human C2 V448A
